From publication PMC8884915, “Electrostatic sheathing of lipoprotein lipase is essential for its movement across capillary endothelial cells” (The Journal of Clinical Investigation, 2022) come the findings set out here.

The chains are these.
B1: mouse lipoprotein lipase (LPL), recombinant, purified (enzyme)
chain: ADAGRDFSDIESKFALRTPEDTAEDTCHLIPGLADSVSNCHFNHSSKTFVVIHGWTVTGMYESWVPKLVAALYKREPDSNVIVVDWLYRAQQHYPVSAGYTKLVGNDVARFINWMEEEFNYPLDNVHLLGYSLGAHAAGVAGSLTNKKVNRITGLDPAGPNFEYAEAPSRLSPDDADFVDVLHTFTRGSPGRSIGIQKPVGHVDIYPNGGTFQPGCNIGEAIRVIAERGLGDVDQLVKCSHERSIHLFIDSLLNEENPSKAYRCNSKEAFEKGLCLSCRKNRCNNLGYEINKVRAKRSSKMYLKTRSQMPYKVFHYQVKIHFSGTEDGKQHNQAFEISLYGTVAESENIPFTLPEVSTNKTYSFLIYTEVDIGELLMMKLKWISDSYFSWPDWWSSPSFVIERIRVKAGETQKKVIFCAREKVSHLQKGKDSAVFVKCHDKSLKKSG
B2: soluble WT mouse GPIHBP1 (residues 23-198) (domain or fragment, UniProt Q9D1N2 23-198, looked up)
chain: QEDGDADPEPENYNYDDDDDEEEEEETNMIPGSRDRAPLQCYFCQVLHSGESCNQTQSCSSSKPFCITLVSHSGTDKGYLTTYSMWCTDTCQPIIKTVGGTQMTQTCCQSTLCNIPPWQNPQVQNPLGGRADSPLESGTRHPQGGKFSHPQVVKAAHPQSDGANLPKSGKANQPQG
modifications: sulfated tyrosines in the acidic domain (Tyr35, Tyr37): one half of the molecules contained 2 sulfated tyrosines, the other half only 1
notes: lacks the carboxyl-terminal signal peptide that triggers the addition of a GPI anchor; Homogeneous and monodisperse preparation after removal of low levels of oligomers by SEC; also called WT-GPIHBP1; purified WT-GPIHBP1

Assay [1] addresses T1, soluble mouse S-GPIHBP1 (acidic stretch and adjacent tyrosines replaced with an S-protein tag) (mouse, UniProt Q9D1N2 23-198, residues 32 to 48 replaced with the S-protein tag (KETAAAKFERQHMDS)).
T1 sequence: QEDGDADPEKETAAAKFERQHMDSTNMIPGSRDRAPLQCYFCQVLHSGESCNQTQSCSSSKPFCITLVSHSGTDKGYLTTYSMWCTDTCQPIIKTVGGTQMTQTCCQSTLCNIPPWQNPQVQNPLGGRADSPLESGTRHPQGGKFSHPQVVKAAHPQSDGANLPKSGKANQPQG
Kind of assay: SPR; 150 mM NaCl. In general terms: In SPR one partner is held on a chip, and binding of the other changes the refractive index at the surface.

For assay [2], the target named is T1, soluble mouse S-GPIHBP1 (acidic stretch …). As to the kind of experiment: SPR; 750 mM NaCl.
The target is the same in assay [3]. Kind of assay: SPR; 150 mM NaCl. This is another data set of the same source.
For assay [4] the target is unchanged. Kind of assay: SPR; 750 mM NaCl. The source holds these as a separate data set.
Assay [5] shares this target. Kind of assay: SPR; LPL bound to heparin DP4, 150 mM NaCl.
Assay [6] has the same target. Kind of assay: SPR; LPL bound to heparin DP4, 150 mM NaCl. This is another data set of the same source.
Assay [7] has as its target B1. As to the kind of experiment: SPR; 150 mM NaCl.
For assay [8], the target named is B1. Kind of assay: SPR; 750 mM NaCl.
The target in assay [9] is B1. As to the kind of experiment: SPR; 150 mM NaCl.
In assay [10] the target is B1. Kind of assay: SPR; 750 mM NaCl.
The target of assay [11] is T2, mouse lipoprotein lipase (LPL), recombinant, purified (mouse, UniProt P11152 28-474).
T2 construct: lipoprotein lipase, mouse; expressed in Drosophila S2 cells; also called mouse LPL; purified mouse LPL; source: Drosophila S2 cells, purified to homogeneity by heparin-Sepharose chromatography
T2 sequence (looked up): B1 chain
Kind of assay: SPR; Biacore T200; mouse LPL captured on the chip with immobilised antibody 27A; WT-GPIHBP1 (0.25-4 nM) or S-GPIHBP1 (2-32 nM) injected, single-cycle kinetics, 50 μL/min, 20°C; 10 mM HEPES pH 7.4, 150 mM NaCl, 4 mM CaCl2, 0.05% P20, 0.2 mg/mL BSA. To be noted: both partners purified.

Usually koff stands for the rate constant with which the complex falls apart. One may read the Kd as a measure of binding affinity in units of concentration.

On to B1, for which the koff stood at 0.0167 s⁻¹ in assay [1], 0.0495 s⁻¹ in [2] and 0.0211 s⁻¹ in assay [5]. The Kd in assay [3] worked out at 107 nM; in assay [4], 183 nM; in [6], 290 nM.

Take B2: the koff in assay [7] turned out to be 0.0125 s⁻¹; in assay [8], 0.0143 s⁻¹. For the same molecule, the Kd was found to be 0.93 nM in assay [9] and 20 nM in assay [10]. For the same molecule, the binding result in assay [11] is “binds”.
